From PMC8131568, “A noncanonical heme oxygenase specific for the degradation of c-type heme” (The Journal of Biological Chemistry, 2021)

Molecular target: the molecule itself
Test: crystal structure; Pden_1323 alone at 12 mg/ml; sitting-drop vapor diffusion; 14% glycerol, 18 to 25% PEG 4000, 0.3 M sodium acetate, 0.1 M Tris pH 8.8

B1: Pden_1323 (enzyme, Paracoccus denitrificans PD1222)
chain: MKIDPIRETTDEARALARQLLEAARHASLGTLDPETGVPLVTRIALQTDADGVPLALLAGLAAHARALAVDPRAGLLIAAEAAKGDAMTHARLSILGRAVPAEPDENRRARWLERDPKAKVYLDLPDFRFWRIEPVSGLLNAGFGQAFKLTASDMLKPPAE
notes: Pden_1323, product of the pden_1323 gene of Paracoccus denitrificans PD1222 (opp gene cluster), codon-optimized and cloned NdeI/XhoI into pET-28b(+); HugZ homolog; also called c-type heme oxygenase; CHO; source: Superdex 200 for crystallography; not shown: His-tag, N-terminal, cleaved
binding result: binds
